Measurements from US20140120109A1 (Regeneron, published 2014).

Tests used:
[1] = molecular target: T1, human TL1A, soluble, CHO-expressed, residues 72-251 of SEQ ID NO:244 with N-terminal His6-tag (human, UniProt O95150 72-251); assay: cell-based or functional assay
T1 sequence: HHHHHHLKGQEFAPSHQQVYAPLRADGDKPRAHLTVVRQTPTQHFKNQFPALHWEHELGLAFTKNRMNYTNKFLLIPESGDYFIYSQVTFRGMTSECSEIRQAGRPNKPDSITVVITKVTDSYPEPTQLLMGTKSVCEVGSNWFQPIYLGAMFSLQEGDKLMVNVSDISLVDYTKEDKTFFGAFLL

[2] = molecular target: T1, human TL1A, soluble, CHO-expressed, …; assay: cell-based or functional assay; remark: listed apart in the source
[3] = molecular target: T2, full length human TL1A expressed on HEK293 cells (human, UniProt O95150 1-251); assay: flow, HEK293/hTL1A, mAb 0.1 ug/ml + 1 ug/ml soluble hTL1A
T2 construct: also called HEK293/hTL1A; cell-surface hTL1A
T2 sequence: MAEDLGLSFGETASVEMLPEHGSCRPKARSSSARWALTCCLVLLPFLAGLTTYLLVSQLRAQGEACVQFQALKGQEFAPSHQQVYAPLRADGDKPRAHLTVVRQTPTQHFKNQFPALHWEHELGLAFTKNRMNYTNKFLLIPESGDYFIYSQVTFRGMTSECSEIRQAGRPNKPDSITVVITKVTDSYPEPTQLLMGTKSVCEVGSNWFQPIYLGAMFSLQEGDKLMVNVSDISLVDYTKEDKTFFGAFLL
Experimental: Human embryonic kidney 293 cells stably transfected to over-express cell-surface hTL1A were first stained in a flow cytometric experiment with eight anti-hTL1A antibodies at four concentrations (1, 0.1, 0.01, and 0.003 μg/ml). […] The lowest antibody concentration providing significant staining levels was then used in a competition binding experiment. A negative isotype control antibody (human IgG4) was used at 1 μg/ml to define the background signal. For the competition experiment, eight antibody samples, at the minimal concentrations identified above, were first treated with soluble hTL1A expressed from CHO cells at concentrations ranging from 0.03 μg/ml to 10 μg/ml. After pre-incubation for 30 min on ice, the antibody/hTL1A mixture was added to 293/HEK-hTL1A cells that had been isolated by centrifugation in a 96-well conical plate. After incubation for an additional 10 minutes on ice, the cells were washed. The secondary reagent, anti-h Fcγ-APC F(ab′)₂, was added to all wells at a 200-fold dilution to detect bound antibodies. Samples were incubated for 15 minutes on ice, away from light, and then washed. Cells were processed on an BD™ LSR II Flow Cytometer (BD Biosciences) to detect anti-hTL1A antibodies bound to the cell surface, and data were analyzed using FlowJo software (version 8.8.6; Tree Star Inc.). Maximum signal: Anti-hTL1A antibody binding in the absence of soluble hTL1A; Minimum signal: Signal recorded when […] of isotype control antibody was added in place of the anti-hTL1A antibody. NT: Not tested.

B1: H4H1725P (antibody, human IgG4 S228P, V domains shown)
VH: QVQLVQSGAEVKKPGASVKVSCKASGYTFTGYYMHWVRQAPGQGLEWMGWIKPKSGGTNYVQKFQGRVTMTRDTSINTAYMELNNLKSDDTAVYYCATGGSQDASDFWGQGTMVTVSS
VL: DIQMTQSPSSVSASVGGRVTITCRASQDISIWLAWYQQKPGKAPNLLIYAASSLQSGVPSRFSGSGSGTDFTLTISSLQPEDFATYYCQQADSFPLTFGGGTKVEIK
IC50, IFN-g release, average of donors [1]: 6.4 nM
IC50, IFN-g release, donor D1 [1]: 3.4 nM
IC50, IFN-g release, donor D2 [1]: 3.2 nM
IC50, IFN-g release, donor D3 [1]: 5.4 nM
IC50, IFN-g release, donor D4 [1]: 4.7 nM
IC50, IFN-g release, donor D5 [1]: 7 nM
IC50, IFN-g release, donor D6 [1]: 5.4 nM
IC50, IFN-g release, donor D7 [1]: 13 nM
IC50, IFN-g release, donor D8 [1]: 12 nM
IC50, IFN-g release, donor D9 [1]: 6.4 nM
IC50, IFN-g release, donor D10 [1]: 4.1 nM
IC50, IFN-g release, donor D11 [1]: 6.1 nM
IC50, IFN-g release, donor D12 [1]: 6.4 nM
% Blocking IFN-g, D1, 1 ug/ml mAb [2]: 90%
% Blocking IFN-g, D1, 3 ug/ml mAb [2]: 95%
% Blocking IFN-g, D2, 1 ug/ml mAb [2]: 100%
% Blocking IFN-g, D2, 3 ug/ml mAb [2]: 100%
% Blocking IFN-g, D3, 1 ug/ml mAb [2]: 70%
% Blocking IFN-g, D3, 3 ug/ml mAb [2]: 95%
% Blocking IFN-g, D4, 1 ug/ml mAb [2]: 85%
% Blocking IFN-g, D4, 3 ug/ml mAb [2]: 100%
% Blocking IFN-g, D5, 1 ug/ml mAb [2]: 45%
% Blocking IFN-g, D5, 3 ug/ml mAb [2]: 90%
% Blocking IFN-g, D6, 1 ug/ml mAb [2]: 80%
% Blocking IFN-g, D6, 3 ug/ml mAb [2]: 80%
% Blocking IFN-g, D7, 1 ug/ml mAb [2]: 60%
% Blocking IFN-g, D7, 3 ug/ml mAb [2]: 90%
% Blocking IFN-g, D8, 1 ug/ml mAb [2]: 85%
% Blocking IFN-g, D8, 3 ug/ml mAb [2]: 100%
% Blocking IFN-g, D9, 1 ug/ml mAb [2]: 50%
% Blocking IFN-g, D9, 3 ug/ml mAb [2]: 90%
% Blocking IFN-g, D10, 1 ug/ml mAb [2]: 95%
% Blocking IFN-g, D10, 3 ug/ml mAb [2]: 100%
MFI [3]: 29.2
